Assay results reported in patent US20200199244A1 (published 2020).
Where “and” joins values, the source holds several entries; their conditions need not be identical. Equal values may be shown once. Read-outs that look alike come from different tables or passages of the source.

Tests used:
[1] = biological target: T1, human CD40 (BMS, CY24FEB06-01) (human, UniProt P25942 21-193); assay: ELISA RBA, competition with IZ-CD40L
T1 construct: Soluble reagent of the bead and ELISA RBA; It is detected with an anti-human IgG (Fc) mAb, so it may be a CD40-Ig fusion
Description: Clear walled High Bind, 384-well plates (Corning, UK) were coated with 25 μl of 1 μg/ml Neutravidin in 0.2 M carbonate-bicarbonate buffer, pH 9.4 overnight at 4° C. The following day, assay plates were washed with 0.1% (v/v) Tween PBS buffer, blocked with 1% (w/v) BSA in PBS for 1 hour at room temperature and washed again. […] Following washing of the assay plate, the dAb:human CD40 complex was incubated in the assay plate at room temperature for 2 hours with gentle agitation. […] Absorbance signal was measured using a SpectraMax® M5e plate reader (Molecular Devices) at 450 nm following neutralization with 1M HCl solution.

[2] = biological target: T2, biotinylated human CD40 (human, UniProt P25942 21-193, limits assumed, biotinylated (sites not given)); assay: SPR, BIAcore 3000 COINJECT over biotinylated human CD40; mixture after first injection; competitor BMS3h-198-1
T2 construct: Biotinylated human CD40 (supplied by BMS), about 600 RU immobilised on a streptavidin BIAcore chip; also called hCD40

[3] = biological target: T2, biotinylated human CD40; assay: SPR, BIAcore 3000, dAb injected alone over biotinylated human CD40 on SA chip
Description: (§1) A BIAcore™ 3000 instrument (GE Healthcare) was used to analyze whether CD40-specific dAbs bound the same CD40 epitope. […] A second flow-cell without any ligand immobilized served as a reference flow-cell for inline referencing. An appropriate dilution of each dAb or Fab to be analyzed was prepared in HBS-EP buffer (0.01 M HEPES pH 7.4 with 0.15 M NaCl, 3 mM EDTA and 0.005% v/v Surfactant P20, GE Healthcare). […] Next, a mixture of the same dAb or Fab as above (at the same final concentration) was prepared with a second dAb or Fab to be analyzed for competition. The COINJECT function of the instrument was used to inject 60 μl of the single-inhibitor dilution across the CD40-immobilized and reference flow-cells in series, followed immediately by a 60 μl injection of the two-inhibitor mixture. Inline subtraction of the signal from the reference cell was performed by the instrument's control software. The experiment was performed at 25° C. and a flow rate of 30 μl/min of HBS-EP. […] The maximum RU obtained for the second injection (the mixture of the two inhibitors) was noted and expressed as a percentage of the RU obtained for the same inhibitor when injected alone.

[4] = biological target: T2, biotinylated human CD40; assay: SPR, BIAcore 3000 COINJECT over biotinylated human CD40; mixture after first injection; competitor BMS3h-56-5
Description: as §1

[5] = biological target: T2, biotinylated human CD40; assay: SPR, BIAcore 3000 COINJECT over biotinylated human CD40; mixture after first injection; competitor BMS3h-202-11
Description: as §1

[6] = biological target: T2, biotinylated human CD40; assay: SPR, BIAcore 3000 COINJECT over biotinylated human CD40; mixture after first injection; competitor BMS3h-131-2
Description: as §1

[7] = biological target: T3, human CD40 expressed on stably transfected CHO-DG44 cells (human, UniProt P25942 21-277); assay: CHO-CD40 cell RBA, competition with IZ-CD40L
T3 construct: also called CHO-CD40

[8] = biological target: T1, human CD40 (BMS, CY24FEB06-01); assay: bead RBA, competition with IZ-CD40L
[9] = biological target: T2, biotinylated human CD40; assay: SPR, BIAcore 3000, dAb injected alone over biotinylated human CD40 on SA chip; remark: listed apart in the source
Description: as §1

[10] = biological target: T2, biotinylated human CD40; assay: SPR, BIAcore 3000 COINJECT over biotinylated human CD40; mixture after first injection; competitor BMS3h-56-5; remark: listed apart in the source
Description: as §1

[11] = biological target: T2, biotinylated human CD40; assay: SPR, BIAcore 3000 COINJECT over biotinylated human CD40; mixture after first injection; competitor BMS3h-37-11
Description: as §1

[12] = biological target: T4, human CD40 (W109L, L121P) Fc fusion (human, UniProt P25942 21-193); assay: SPR (ProteOn XPR36), CD40-Fc captured via anti-human IgG(Fc), dAb as analyte, 25 C
T4 construct: Made by site-directed mutagenesis of the wild type construct; no cleavage site is stated; also called hCD40-M4; hCD40 M4 (W109L, L121P); not shown: human IgG1 Fc

[13] = biological target: T5, human CD40 (H76R, W109L, L121P) Fc fusion (human); assay: as above
T5 construct: Made by site-directed mutagenesis of the wild type construct; no cleavage site is stated; also called hCD40-M5; hCD40-M5 (H76R, W109L, L121P); not shown: human IgG1 Fc
T5 chain: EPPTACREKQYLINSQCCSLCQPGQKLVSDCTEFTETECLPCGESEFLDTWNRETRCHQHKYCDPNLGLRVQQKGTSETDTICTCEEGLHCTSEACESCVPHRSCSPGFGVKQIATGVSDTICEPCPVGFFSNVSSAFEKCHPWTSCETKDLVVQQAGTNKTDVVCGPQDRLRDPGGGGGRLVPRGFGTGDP

[14] = biological target: T6, wild type cynomolgus monkey CD40 Fc fusion (cynomolgus monkey (Macaca …)); assay: as above
T6 construct: also called wt-cyno-CD40; wt-cCD40; not shown: human IgG1 Fc
T6 chain: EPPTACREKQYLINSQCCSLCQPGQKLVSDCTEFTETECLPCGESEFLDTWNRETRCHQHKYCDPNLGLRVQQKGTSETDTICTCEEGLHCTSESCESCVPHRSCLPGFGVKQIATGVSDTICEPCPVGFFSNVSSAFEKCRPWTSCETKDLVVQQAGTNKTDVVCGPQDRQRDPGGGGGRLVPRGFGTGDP

B1: BMS3h-257 (other)
VH: EVQLLESGGGLVQPGGSLRLSCAASGFTFQNYQMAWVRQAPGKGLEWVSTISGTGKNTYYADSVKGRFTISRDNSKNTLYLQMNSLRAEDTAVYYCAKTPQNYFSVRRFDYWGQGTLVTVSS
notes: dAb, single VH
Question: For B1, which EC50 [1] is on record?
Answer: 3210 nM and 1340 nM

B2: BMS3h-287 (other)
VH: EVQLLESGGGLVQPGGSLRLSCAASGFTFTNYRMSWVRQAPGKGLEWVSAIDDLGVSTYYADSVKGRFTISRDNSKNTLYLQMNSLRAEDTAVYYCAKWRLKNSQPTDFDYWGQGTLVTVSS
notes: dAb, single VH
Question: How did the EC50 [1] turn out when B2 was run?
Answer: > 10000 nM and 6760 nM

B3: BMS3h-37-11 (other)
VH: EVQLLESGGGLVQPGGSLRLSCAASGFTFEWYEMQWVRKAPGKGLEWVSAISGDGYRTYYADSVKGRFTISRDNSKNTLYLQMNSLRAEDTAVYYCAKELGYFDYRGRGTLVTVSS
notes: Domain antibody (dAb), single human VH domain
Question: With B3 as the binder, how does the “Second Injection (% of single dAb RU)” value [2] read?
Answer: 6.4%

Question: And the “RU first dAb alone” value [3]?
Answer: 158 RU

Question: What about the “Second Injection (% of single dAb RU)” value [4] of the same binder?
Answer: -15%

Question: And the “Second Injection (% of single dAb RU)” value [5]?
Answer: 42%

Question: What about the “Second Injection (% of single dAb RU)” value [6] of the same binder?
Answer: -3.7%

B4: BMS3h-217 (other)
VL: DIQMTQSPSSLSASVGDRVTITCRASHFIGTLLSWYQQKPGKAPKLLITYGSLLQSGVPSRFSGSGSGTDFTLTISSLQPEDFATYYCGQGVLWPATFGQGTKVEIKR
notes: dAb, single VK
Question: Which EC50 [7] does the source give for B4 here?
Answer: 1400 nM

Question: What about the EC50 [8] of the same binder?
Answer: 800 nM

B5: BMS3h-41-9 (other)
VH: EVQLLEPGGGLVQPGGSLRLSCAASGFTFTEYEMIWVRKAPGKGMEWVSSISGNGANTYYADSVKGRFTISRDNSKNTLYLQMNSLRPEDTAVYYCAKEPLRFDDWGQGTLVTVSS
notes: as for B3
Question: How did the “RU first dAb alone” value [9] turn out when B5 was run?
Answer: 150 RU

Question: What about the “Second Injection (% of single dAb RU)” value [10] of the same binder?
Answer: 0%

B6: BMS3h-202-11 (other)
VH: EVQLLESGGGLVQPGGSLRLSCAASGFTFPTAEMLWVRKAPGKGLEWVSSISASGGSTYYADSVKGRFTISRDNSKNTLYLQMNSLRAEDAAVYYCAKEPVSYVATFDYWGQGTLVTVSS
notes: as for B3
Question: What does the source list for B6?
Answer: Second Injection (% of single dAb RU) [2]: 18%; RU first dAb alone [3]: 124 RU; Second Injection (% of single dAb RU) [4]: 7.3%; Second Injection (% of single dAb RU) [6]: 10.3%; Second Injection (% of single dAb RU) [11]: 0.3%

B7: BMS3h-198 (other)
VH: EVQLLESGGGLVQPGGSLRLSCAASGFTFAGYEMWWVRQAPGKGLERVSAISGSGGSTYYADSVKGRFTISRDDSKNTLYLQMNSLRAEDTAVYYCAKDPYSFDYWGQGTLVTVSS
notes: dAb, single VH
Question: Which EC50 [7] does the source give for B7 here?
Answer: 600 nM

Question: And the EC50 [8]?
Answer: 80 nM

B8: BMS3h-198-1 (other)
VH: EVQLLESGGGLVQPGGSLRLSCAASGSTIAGYEMWWVRQAPGKGLERVSAISGSGGSTYYADSVKGRFTISRDDSKNTLYLQMNSLRAEDTAVYYCARDPYSFDYWGQGTLVTVSS
notes: as for B3
Question: Which results are given for B8?
Answer: RU first dAb alone [3]: 176 RU; Second Injection (% of single dAb RU) [4]: 0.6%; Second Injection (% of single dAb RU) [5]: 39%; Second Injection (% of single dAb RU) [6]: 23.2%; Second Injection (% of single dAb RU) [11]: 16%

B9: BMS3h-56-5 (other)
VH: EVQLLESGGGLVQPGGSLRLSCAASGFTFRDYEMWWVRQAPGKGLERVSAINPQGTRTYYADSVMGRFTISRDNSKNTLYLQMNSLRAEDTAVYYCAKLPFTFDDWGQGTLVTVSS
notes: Anti-human CD40 domain antibody (dAb), a single human VH domain
Question: What does the source list for B9?
Answer: binding result [12]: no binding (tested: 405 nM (highest dAb concentration)); binding result [13]: no binding (tested: 405 nM (highest dAb concentration)); binding result [14]: no binding (tested: 405 nM (highest dAb concentration))

B10: BMS3h-56-217 (other)
VH: EVQLLESGGGLVQPGGSLRLSCAASGFTFRDYEMWWVRQAPGKGLERVSAINPWGSLTYYADSVKGRFTISRDNSKNTLYLQMNSLRAEDTAVYYCAKLPFTFEDWGQGTLVTVSS
notes: as for B9
Question: What does the source list for B10?
Answer: binding result [12]: no binding (tested: 405 nM (highest dAb concentration)); binding result [13]: no binding (tested: 405 nM (highest dAb concentration)); binding result [14]: no binding (tested: 405 nM (highest dAb concentration))

B11: BMS3h-56-202 (other)
VH: EVQLLESGGGLVQPGGSLRLSCAASGFTFRDYEMWWVRQAPGKGLERVSAINPQGTRTYYADSVKGRFTISRDNSKNTLYLQMNSLRAEDTAVYYCAKLPTYFSDRGQGTLVTVSS
notes: as for B9
Question: Does B11 bind [12]?
Answer: no binding (tested: 405 nM (highest dAb concentration))

Question: Does B11 bind [13]?
Answer: no binding (tested: 405 nM (highest dAb concentration))

Question: Does B11 bind [14]?
Answer: no binding (tested: 405 nM (highest dAb concentration))

B12: BMS3h-56-206 (other)
VH: EVQLLESGGGLVQPGGSLRLSCAASGFTFRDYEMWWVRQAPGKGLERVSAINPQGTRTYYADSVKGRFTISRDNSKNTLYLQMNSLRAEDTAVYHCAKLPMFFEDWGQGTLVTVSN
notes: as for B9
Question: Does B12 bind [12]?
Answer: no binding (tested: 405 nM (highest dAb concentration))

Question: Does B12 bind [13]?
Answer: no binding (tested: 405 nM (highest dAb concentration))

Question: Does B12 bind [14]?
Answer: no binding (tested: 405 nM (highest dAb concentration))

B13: BMS3h-43 (other)
VH: EVQLLESGGGLVQPGGSLRLSCTASGFTFNMYEMSWVRQAPGKGLEWVSGISRRGFTTYYADSVKGRFTISRDNSKNTLYLQMNSLRAEDTAVYYCAKEPITYAMRYARFDYWGQGTLVTVSS
notes: dAb, single VH
Question: With B13 as the binder, how does the EC50 [7] read?
Answer: 5000 nM

Question: And the EC50 [8]?
Answer: 100 nM and 50 nM

B14: BMS3h-131-2 (other)
VL: DIQMTQSPSSLSASVGDRVTITCRADSSILWALAWYQQKPGKAPKLLIESSSGLQSGVPSRFSGSGSGTDFTLTISSLQPEDFATYYCVQNAVWPGTFGQGTKVEIKR
notes: Domain antibody (dAb), single human V kappa domain
Question: What does the source list for B14?
Answer: Second Injection (% of single dAb RU) [2]: 41%; RU first dAb alone [3]: 220 RU; Second Injection (% of single dAb RU) [4]: 17%; Second Injection (% of single dAb RU) [5]: 57%; Second Injection (% of single dAb RU) [11]: 25%

B15: BMS3h-38-2 (other)
VH: EVQLLASGGGLVQPGGSLRLSCAASGFTFEEEEMIWVRQAPGKGLEWVSAISGSGGSTYYADSVKGRFTISRDNSKNTLYLQMNSLRAEDTAVYYCGKEPFRYDYWGQGTLVTVSS
notes: as for B3
Question: How did the “RU first dAb alone” value [9] turn out when B15 was run?
Answer: 170 RU

Question: And the “Second Injection (% of single dAb RU)” value [10]?
Answer: 4%
